Experimental data from the supplement of paper PMC7125110.
± gives the standard error. For part of these data: Fewer inactive variants are shown than the library holds.

B1: glmS ribozyme (parent)
chain: AUAAAAGCGCCAGAACUACAGAAAUGUAGUUGACGAGGAGGAGGUUUAUCGAAUUUUCGGCGGAUGCCUCCAAA

Legend:
Settings in all cases: with glucosamine-6-phosphate
[1] = variants of: B1; experiment: kcat; higher = faster cleavage; RNA array
How it was run: (§1)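 kcat and KM were obtained from weighted Michaelis–Menten fits across concentrations of kobs values. Those came from one- or two-exponential decay fits to per-tile medians normalised to baseline and to non-cleaving reference variants. The variants were barcoded ribozymes transcribed in situ by E. coli RNA polymerase on sequenced MiSeq chips and tracked through a hybridised Cy3 probe at 37 °C, with 40 μM to 10 mM glucosamine-6-phosphate in HEPES/KCl/Mg(OAc)2 buffer flowed in.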

[2] = variants of: B1; experiment: self-cleavage kobs at 160 uM GlcN6P; higher = faster cleavage; RNA array
How it was run: as §1

[3] = variants of: B1; experiment: self-cleavage kobs at 2500 uM GlcN6P; higher = faster cleavage; RNA array
How it was run: as §1

[4] = variants of: B1; experiment: self-cleavage kobs at 10000 uM GlcN6P; higher = faster cleavage; RNA array
How it was run: as §1

[5] = variants of: B1; experiment: KM; higher = weaker cofactor use; RNA array
How it was run: as §1

[6] = variants of: B1; experiment: self-cleavage kobs at 640 uM GlcN6P; higher = faster cleavage; RNA array
How it was run: as §1

[7] = variants of: B1; experiment: self-cleavage kobs at 40 uM GlcN6P; higher = faster cleavage; RNA array
How it was run: as §1

Row | Variant | kcat [1] | self-cleavage kobs at 160 uM GlcN6P [2] | self-cleavage kobs at 2500 uM GlcN6P [3] | self-cleavage kobs at 10000 uM GlcN6P [4] | KM [5] | self-cleavage kobs at 640 uM GlcN6P [6] | self-cleavage kobs at 40 uM GlcN6P [7]
1 | AUAAAAGCGCUAGAACUACAGAAAUGUAGUUGACGAGGAGGAGGUUUAUCGAUUUUUCGGCGGAUGCCUCCAAA | 0.00137 ± 0.0004 s⁻¹ | 0.000141 ± 3.8e-05 s⁻¹ | 0.000587 ± 0.00017 s⁻¹ | 0.00125 ± 0.00023 s⁻¹ |  |  | 
2 | AUAAAAGCGCUAGAACUACAGAAAUGUAGUUAACGAGGAGGAGGUUUAUCGAAUUUUCGGCGGAUGCCUCCAAA | 0.000453 ± 3.3e-05 s⁻¹ | 5.04e-05 ± 2.1e-05 s⁻¹ | 0.000239 ± 5.9e-05 s⁻¹ | 0.000404 ± 4.4e-05 s⁻¹ | 1520 ± 290 µM | 0.00014 ± 3.1e-05 s⁻¹ | 
3 | AUAAAAGCGCUAGAACUACAGAAAUGUAGUUGACGAGGAGGAGGUUUAUCGAAUUCUCGGCGGAUGCCUCCAAA | 0.000248 ± 5e-05 s⁻¹ |  | 0.000176 ± 2.3e-05 s⁻¹ | 0.000188 ± 2.3e-05 s⁻¹ | 2260 ± 1000 µM | 4.51e-05 ± 9.7e-06 s⁻¹ | 
4 | AUAAAAGCGCUAGAACUACAGAAAUGUAGUUGACGAGGAGGAGGUUUAUCGAAUUAUCGGCGGAUGCCUCCAAA | 0.00124 ± 0.00023 s⁻¹ | 0.000103 ± 1.4e-05 s⁻¹ | 0.000621 ± 7.2e-05 s⁻¹ | 0.00125 ± 0.00016 s⁻¹ | 1910 ± 580 µM | 0.000294 ± 4.5e-05 s⁻¹ | 3.72e-05 ± 1e-05 s⁻¹
5 | AUAAAAGCGCCCGAGCUACAGAAAUGUAGUUGACGAGGAGGAGGUUUAUCGAAUUUUCGGCGGAUGCCUCCAAA | 0.016 ± 0.0031 s⁻¹ | 0.000883 ± 0.00014 s⁻¹ | 0.00626 ± 0.0015 s⁻¹ | 0.0142 ± 0.0018 s⁻¹ | 2400 ± 600 µM | 0.00332 ± 0.0006 s⁻¹ | 0.000302 ± 3.5e-05 s⁻¹
6 | AUAAAAGCGCUAGAACUACAGAAAUGUAGUUGACGAGGACGAGGUUUAUCGAAUUUUCGGCGGAUGCCUCCAAA | 0.000197 ± 1.3e-05 s⁻¹ |  | 8.9e-05 ± 1.4e-05 s⁻¹ | 0.000153 ± 1.9e-05 s⁻¹ | 2960 ± 470 µM | 3.93e-05 ± 1.6e-05 s⁻¹ | 
7 | AUAAAAGCGCUAGAACUACAGAAAUGUAGUUGACGAGGAGGAGGUUUAUCGAAUUUUGGGCGGAUGCCUCCAAA | 3.35e-05 ± 2.6e-07 s⁻¹ |  | 3.13e-05 ± 1e-05 s⁻¹ | 3.28e-05 ± 7.7e-06 s⁻¹ | 188 ± 18 µM |  | 
8 | AUAAAAGCGCUAGAACUACAGAAAUGUAGUUGACGAGGAGGAGGUUUAUCGAAUUUUUGGCGGAUGCCUCCAAA | 3.64e-05 ± 4.6e-06 s⁻¹ |  | 4.05e-05 ± 1.3e-05 s⁻¹ | 3.32e-05 ± 7.1e-06 s⁻¹ |  |  | 
9 | AUAAAAGCGCUAGAACUACAGAAAUGUAGUUGACGAGGAGGAGGUUUAUCGAAUUUUCGGCGGAUGACUCCAAA | 0.000277 ± 2.6e-05 s⁻¹ | 4.36e-05 ± 1.8e-05 s⁻¹ | 0.000256 ± 4e-05 s⁻¹ | 0.000242 ± 3e-05 s⁻¹ | 801 ± 180 µM | 0.000121 ± 1.3e-05 s⁻¹ | 
10 | AUAAAAGCGCUAGAACUACAGAAAUGUAGUCGACGAGGAGGAGGUUUAUCGUAUUUUCGGCGGAUGCCUCCAAA | < 1e-05 s⁻¹ |  |  |  |  |  | 
11 | AUAAAAGCGCUAGAACUACAGAAAUGUAGUUGACGACGAGGAGGUUUAUCGAAUUUUCGGCGGAUGCCUCCAAA | 1.18e-05 ± 3.2e-06 s⁻¹ |  |  |  |  |  | 
12 | AUAAAAGCGCUAGAACUACAGAAAUGUAGUUGACGAGGAUGAGGUUUAUCGAAUUUUCGGCGGAUGCCUUCAAA | 0.000108 ± 1.1e-06 s⁻¹ |  | 7.62e-05 ± 2.5e-05 s⁻¹ | 9.73e-05 ± 2e-05 s⁻¹ | 1100 ± 48 µM |  | 
13 | AUAAAAGCGCUAGAACUACAGAAAUGUAGUUGACGAGGAGGAGGUUUAUCGAAUGUUCGGCGGAUGCCUGCAAA | 9.32e-05 ± 8.6e-06 s⁻¹ |  |  | 8.94e-05 ± 1.7e-05 s⁻¹ |  | 7.75e-05 ± 2.5e-05 s⁻¹ | 
14 | AUAAAAGCGCUAGAACUACAGAAAUGUACUUGACGAGGAGGAGGUUUAUCGAAUUUUCGGCGGAUGCCUCCAAA | 0.00018 ± 9.3e-06 s⁻¹ |  | 0.000109 ± 1.3e-05 s⁻¹ | 0.00015 ± 1.2e-05 s⁻¹ | 1860 ± 290 µM | 4.1e-05 ± 1.1e-05 s⁻¹ | 
15 | AUAAAAGCGCUAGAACUACAGAAAUGUAGUUGACGAGGAGGAGGUUUAUCGAAUUAUCGGCGGAUGCCUUCAAA | 0.00048 ± 0.00011 s⁻¹ |  | 0.000485 ± 0.00013 s⁻¹ | 0.000416 ± 6.3e-05 s⁻¹ |  | 0.000508 ± 0.00011 s⁻¹ | 3.04e-05 ± 9.5e-06 s⁻¹
16 | AUAAAAGCGCUAGAACUACAGAAAUGUAGUUGACGAGGAGGAGGUUUAUCGAAUUUUCGGCGGAUGCCUCAAAA | 0.000412 ± 2.6e-05 s⁻¹ | 4.15e-05 ± 1.7e-05 s⁻¹ | 0.00024 ± 4.4e-05 s⁻¹ | 0.000354 ± 6.1e-05 s⁻¹ | 1790 ± 200 µM | 0.000106 ± 1.5e-05 s⁻¹ | 
17 | AUAAAAGCGCUAGAACUACAGAAAUGUAGUUGAUGAGGAGGAGGUUUAUCGAAUUUUCGGCGUAUGCCUGCAAA | 2.22e-05 ± 4.3e-06 s⁻¹ |  |  |  |  |  | 
18 | AUAAAAGCGCUAGAACUACAGAAAUGUAGUUGACGAGGAGGAGGUUUAUCGAAUUUUCGGCGGAUACCUCCAAA | 0.000908 ± 0.00021 s⁻¹ |  | 0.000661 ± 0.00015 s⁻¹ | 0.000673 ± 0.00012 s⁻¹ | 2510 ± 1100 µM | 0.000205 ± 6e-05 s⁻¹ | 
